Assay results taken from US20250057968A1, “ANTI-DLL3 ANTIBODY AND PHARMACEUTICAL USE THEREOF, AND ANTIBODY-DRUG CONJUGATE CONTAINING ANTI-DLL3 ANTIBODY” (Jiangsu Hengrui Pharmaceuticals Co., Ltd., priority 2021, published 2025).
Changes are numbered by the printed parent chain.

T1: Human DLL3 full-length protein on cells (human, UniProt Q9NYJ7 27-618)
T1 construct: H1184 and DMS53 express DLL3 themselves; The cell line is named under assay; also called H1184 cells; DLL3/H82
T1 sequence: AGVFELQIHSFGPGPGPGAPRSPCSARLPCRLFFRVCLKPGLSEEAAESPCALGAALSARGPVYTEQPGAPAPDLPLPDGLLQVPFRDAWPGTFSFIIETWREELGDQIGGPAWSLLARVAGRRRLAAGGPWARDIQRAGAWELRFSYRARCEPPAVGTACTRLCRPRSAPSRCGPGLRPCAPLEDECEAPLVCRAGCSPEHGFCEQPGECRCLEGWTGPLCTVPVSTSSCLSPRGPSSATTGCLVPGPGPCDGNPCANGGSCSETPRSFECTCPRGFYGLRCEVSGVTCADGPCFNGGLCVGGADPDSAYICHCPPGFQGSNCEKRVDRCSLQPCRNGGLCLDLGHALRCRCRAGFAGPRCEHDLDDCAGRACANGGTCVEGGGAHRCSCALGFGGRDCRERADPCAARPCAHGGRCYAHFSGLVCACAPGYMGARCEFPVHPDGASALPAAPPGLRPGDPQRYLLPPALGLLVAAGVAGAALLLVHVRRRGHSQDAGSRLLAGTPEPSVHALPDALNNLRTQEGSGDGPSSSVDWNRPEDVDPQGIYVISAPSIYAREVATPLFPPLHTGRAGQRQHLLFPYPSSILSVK

T2: human DLL3 (Homo sapiens, UniProt Q9NYJ7)
T2 construct: purchased ACRO DLL3-H52H4
T2 sequence (Q9NYJ7 27-492 limits assumed): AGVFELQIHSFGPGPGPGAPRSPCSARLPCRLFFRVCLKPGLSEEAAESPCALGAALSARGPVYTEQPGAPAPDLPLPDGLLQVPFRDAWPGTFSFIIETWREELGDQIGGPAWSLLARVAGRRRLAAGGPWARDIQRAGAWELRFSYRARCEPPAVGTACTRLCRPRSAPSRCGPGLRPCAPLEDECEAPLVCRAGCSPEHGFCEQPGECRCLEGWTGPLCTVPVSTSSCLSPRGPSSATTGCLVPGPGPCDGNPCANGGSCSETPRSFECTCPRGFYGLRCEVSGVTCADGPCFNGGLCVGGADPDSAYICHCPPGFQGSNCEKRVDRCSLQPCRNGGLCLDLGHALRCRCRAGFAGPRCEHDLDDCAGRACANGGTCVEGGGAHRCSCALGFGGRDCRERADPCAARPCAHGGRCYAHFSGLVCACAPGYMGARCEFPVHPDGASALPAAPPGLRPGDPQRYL

T3: human DLL3 (ACRO, DLL3-H52H4) (human, UniProt Q9NYJ7 27-479)
T3 construct: bought antigen of the Biacore assay; construct not described
T3 sequence (looked up): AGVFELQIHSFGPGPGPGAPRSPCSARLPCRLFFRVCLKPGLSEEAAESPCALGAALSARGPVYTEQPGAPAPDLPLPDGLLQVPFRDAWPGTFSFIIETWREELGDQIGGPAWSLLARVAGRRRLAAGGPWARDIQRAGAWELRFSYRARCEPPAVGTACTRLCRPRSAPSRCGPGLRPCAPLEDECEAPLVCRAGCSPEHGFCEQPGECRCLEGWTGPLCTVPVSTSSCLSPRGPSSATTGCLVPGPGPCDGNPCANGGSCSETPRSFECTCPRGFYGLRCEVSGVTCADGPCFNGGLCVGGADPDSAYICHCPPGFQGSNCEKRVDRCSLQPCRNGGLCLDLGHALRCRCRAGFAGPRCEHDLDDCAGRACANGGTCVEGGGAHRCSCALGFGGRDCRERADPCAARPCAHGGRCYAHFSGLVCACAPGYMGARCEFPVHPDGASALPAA

B1: hAb100L1H2 (antibody, human IgG1, kappa, V domains shown)
VH: EVQLVESGGGLVKPGGSLRLSCAASGFTFSDSGMHWIRQAPGKGLEWVAYISSGSSTIHYADTVKGRFTISRDNAKNSLYLQMNSLRAEDTAVYYCASPLYYYGRSYNAVAYWGQGTTVTVSS
VL: DIQMTQSPSSLSASVGDRVTITCHASQNINVWLSWYQQKPGKVPKLLIYKASDLHTGVPSRFSGSGSGTDFTLTISSLQPEDVATYYCQQGQSYPLTFGGGTKVEIKR
B2: M100CHI (antibody, human IgG1, kappa, V domains shown)
VH: B1 VH with R19K, G42E, S78T, Y80F, N84T, A88S, V93M, T118S
VL: B1 VL with T5N, V15L, R18T, V19I, K42N, V43I, D70G, V83I, V104L
notes: murine variable regions on human IgG1 / kappa constant regions; also called chimeric antibody of mAb100
B3: hAb100L2H4 (antibody, human IgG1, kappa, V domains shown)
VH: B1 VH with A109G
VL: B1 VL with V43I
B4: hAb100L2H1 (antibody, human IgG1, kappa, V domains shown)
VH: B1 VH with A49S
VL: B1 VL with V43I
B5: hAb100L2H2 (antibody, human IgG1, kappa, V domains shown)
VH: B1 VH
VL: B1 VL with V43I
B6: hAb100L1H3 (antibody, human IgG1, kappa, V domains shown)
VH: B1 VH with Y102H
VL: B1 VL
B7: hAb100L2H3 (antibody, human IgG1, kappa, V domains shown)
VH: B1 VH with Y102H
VL: B1 VL with V43I
B8: hAb100L1H4 (antibody, human IgG1, kappa, V domains shown)
VH: B1 VH with A109G
VL: B1 VL
B9: hAb6L3H2: humanized antibody of mAb6: hAb6VH2 (SEQ ID NO: 33) + hAb6VL3 (SEQ ID NO: 47), constant regions SEQ ID NO: 28/29 (antibody, V domains shown)
VH: EVQLVQSGAEVKKPGASVKVSCKASGYTFTDYYMNWVRQAPGQRLEWMGIINPYSGVTIYNHKFKGRVTLTVDKSANTAYMELSSLRSEDTAVYYCARQDSLLDYAMDYWGQGTTVTVSS
VL: DIQMTQSPSSLSASVGDRVTITCHASQGISGNMGWLQQKPGKSFKGLIYHGANLEDGVPSRFSGSGSGADYTLTISSLQPEDFATYYCVQYAQFPYTFGGGTKVEIK
modifications: constant regions SEQ ID 28/29; hAb6 VH2; hAb6 VL3
B10: hAb6L3H3: humanized antibody of mAb6: hAb6VH3 (SEQ ID NO: 34) + hAb6VL3 (SEQ ID NO: 47), constant regions SEQ ID NO: 28/29 (antibody, V domains shown)
VH: B9 VH with M48I, V68A
VL: B9 VL
modifications: constant regions SEQ ID 28/29; hAb6 VH3; hAb6 VL3
B11: hAb6L4H6: humanized antibody of mAb6: hAb6VH6 (SEQ ID NO: 37) + hAb6VL4 (SEQ ID NO: 48), constant regions SEQ ID NO: 28/29 (antibody, V domains shown)
VH: EVQLVQSGSELKKPGASVKVSCKASGYTFTDYYMNWVRQAPGQGLEWMGIINPYSGVTIYNHKFKGRFVLSVDKSSNTAYLQISSLKAEDTAVYYCARQDSLLDYAMDYWGQGTTVTVSS
VL: B9 VL with S43A, F44P, T85D
modifications: constant regions SEQ ID 28/29; hAb6 VH6; hAb6 VL4
B12: hAb6L4H4: humanized antibody of mAb6: hAb6VH4 (SEQ ID NO: 35) + hAb6VL4 (SEQ ID NO: 48), constant regions SEQ ID NO: 28/29 (antibody, V domains shown)
VH: B9 VH with Q43K
VL: B9 VL with S43A, F44P, T85D
modifications: constant regions SEQ ID 28/29; hAb6 VH4; hAb6 VL4
B13: hAb6L4H11: humanized antibody of mAb6: hAb6VH11 (SEQ ID NO: 42) + hAb6VL4 (SEQ ID NO: 48), constant regions SEQ ID NO: 28/29 (antibody, V domains shown)
VH: B11 VH with R38K
VL: B9 VL with S43A, F44P, T85D
modifications: constant regions SEQ ID 28/29; hAb6VH11; hAb6 VL4
B14: hAb6L4H13: humanized antibody of mAb6: hAb6VH13 (SEQ ID NO: 44) + hAb6VL4 (SEQ ID NO: 48), constant regions SEQ ID NO: 28/29 (antibody, V domains shown)
VH: B11 VH with R38K, V69A
VL: B9 VL with S43A, F44P, T85D
modifications: constant regions SEQ ID 28/29; hAb6VH13; hAb6 VL4

The molecules below were run against T1, Human DLL3 full-length protein on cells (assay: FACS on DLL3/H82 cells).
Procedure: Cells of the DLL3-expressing small cell lung cancer cell lines H1184 (ATCC, Cat. No. CRL-5858), DLL3/H82, cynoDLL3/CHO-s, and RatDLL3/CHO-s were suspended at 1×10^6/mL in FACS buffer (1% BSA+pH 7.4 PBS), and the cell suspensions were added to a 96-well round-bottom plate (Corning, 3795) at 100 μL/well. The plate was centrifuged at 300 g for 5 min, and the supernatant was removed. Different concentrations of test antibodies were added at 100 μL/well. The plate was incubated in the dark in a refrigerator at 4° C. for 1 h. After 3 washes by centrifugation at 300 g, working concentrations of APC anti-human IgG Fc (BioLegend, 410712) or PE F(ab′)2-goat anti-human IgG (invitrogen, H10104) were added. The plate was incubated in the dark in a refrigerator at 4° C. for 40 min. After 3 washes by centrifugation at 300 g, the geometric mean fluorescence intensity was measured on an Invitrogen flow cytometer, and the EC50 values of the antibodies in binding to DLL3-expressing cells were calculated.

| EC50 [nM] | Emax | Molecule |
| --- | --- | --- |
| 0.3 | 14800 | B1 |
| 0.25 | 13500 | B2 |
| 0.32 | 13200 | B3 |
| 0.29 | 14400 | B4 |
| 0.16 | 14800 | B5 |
| 0.25 | 14900 | B6 |
| 0.3 | 14800 | B7 |
| 0.22 | 14900 | B8 |

What follows are molecules tested against T2, human DLL3 (assay: Biacore antibody affinity assay, human DLL3).
Assay type: binding
Text: (§1) Test antibodies were affinity-captured with a Protein A biosensor chip (Cat. #29127556, Cytiva) for 18 seconds, and then the antigens human DLL3 (ACRO, DLL3-H52H4), cynomolgus monkey DLL3 (KACTUS, DLL-RM103), and mouse DLL3 (KACTUS, DLL-MM103) were allowed to flow over the surface of the chip for 180 seconds, followed by 600 seconds of dissociation. Reaction signals were detected in real time using a Biacore 8K (Cytiva) instrument to obtain association and dissociation curves. After the dissociation in each experimental cycle, the biosensor chip was washed and regenerated with a 10 mM glycine-hydrochloric acid solution (pH 1.5) (Cat. #BR-1003-54, Cytiva). A 1:1 model was fit to the data. The results are shown in Table 12-1, Table 12-2, and Table 12-3.

| ka [M⁻¹ s⁻¹] | kd [s⁻¹] | Molecule |
| --- | --- | --- |
| 716000 | 0.00114 | B9 |
| 718000 | 0.00135 | B10 |
| 1.91e+06 | 0.000811 | B11 |
| 743000 | 0.00108 | B12 |
| 2.14e+06 | 0.000672 | B13 |
| 2.16e+06 | 0.000695 | B14 |

Each molecule was assayed against T3, human DLL3 (ACRO, DLL3-H52H4) (assay: SPR (Biacore 8K), antibody captured on Protein A chip, 1:1 fit).
Text: as §1

| Kd [nM] | koff [s⁻¹] | kon [M⁻¹ s⁻¹] | Molecule |
| --- | --- | --- | --- |
| 0.467 | 0.000365 | 781000 | B1 |
| 0.528 | 0.000546 | 1.03e+06 | B2 |
| 1 | 0.000655 | 652000 | B3 |
| 1.1 | 0.000629 | 572000 | B4 |
| 0.437 | 0.00037 | 848000 | B5 |
| 0.424 | 0.000352 | 832000 | B6 |
| 0.664 | 0.000268 | 404000 | B7 |
| 0.729 | 0.000254 | 348000 | B8 |
